Reference: FireProtDB (doi:10.1021/bi010636i)
Values joined by “and” are separate entries in the source; they are usually repeats but may differ in a detail not shown here. Identical values can stand only once.

B1: Cytochrome b5 type B, P04166 (parent)
chain: MATPEASGSGRNGQGSDPAVTYYRLEEVAKRNTAEETWMVIHGRVYDITRFLSEHPGGEEVLLEQAGADATESFEDVGHSPDAREMLKQYYIGDVHPNDLKPKDGDKDPSKNNSCQSSWAYWIVPIVGAILIGFLYRHFWADSKSS

Variants of: B1
Details: Rattus norvegicus, pH 7, CD, potassium phosphate buffer, transition: 2, reversible: yes, structure 1B5M, whole UniProt chain shown; for denaturant midpoint (higher = more stable): 25 °C, GdnHCl; for Tm / change of melting temperature, mutant - wild type (higher = more stable): Thermal

| Variant | denaturant midpoint (higher = more stable) | Tm [°C] | change of melting temperature, mutant - wild type (higher = more stable) [°C] |
| --- | --- | --- | --- |
| MATPEASGSGRNGQGSDPAVTYYRLEEVAKRNTSEETWMVIHGRVYDITRFLSEHPGGEEVLREQAGADATESFEDVGHSPDAREMLKQYYIGDVHPNDLKPKDGDKDPSKNNSCQSSWAYWIVPIVGAILIGFLYRHFWADSKSS | 3.56 M and 3.52 M | 83.3 | -3.7 |
| MATPEASGSGRNGQGSDPAVTYYRLEEVAKRNTSEETWMVIHGRVYDLTRFLSEHPGGEEVLREQAGADATESFEDVGHSPDAREMLKQYYIGDVHPNDLKPKDGDKDPSKNNSCQSSWAYWIVPIVGAILIGFLYRHFWADSKSS | 3.34 M and 3.33 M | 81.8 | -5.2 |
| MATPEASGSGRNGQGSDPAVTYYRLEEVAKRNTAEETWMVIHGRVYDLTRFLSEHPGGEEVLLEQAGADATESFEDVGHSPDAREMLKQYYIGDVHPNDLKPKDGDKDPSKNNSCQSSWAYWIVPIVGAILIGFLYRHFWADSKSS | 3.93 M and 3.91 M | 85.7 | -1.3 |
